Test results reported in patent JP2016106147A (dated 2016).
Where “and” joins values, the source holds several entries; their conditions need not be identical. Equal values may be shown once.

Key:
[1] = biological target: T1, ヒトMMP9 (human, UniProt P14780 20-707, limits assumed); test: direct binding assay and SPR
T1 construct: also called human MMP9; ゼラチナーゼ−B

[2] = biological target: T1, ヒトMMP9; test: SPR
[3] = biological target: T1, ヒトMMP9; test: cell-based or functional assay
[4] = biological target: T2, カニクイザルMMP9 (cynomolgus monkey, UniProt A0A2K5UU71 20-706); test: ELISA
T2 construct: also called cynomolgus MMP9; 組換えカニクイザルMMP9

[5] = biological target: T1, ヒトMMP9; test: ELISA
[6] = biological target: T3, ラットMMP9 (rat, UniProt P50282 20-708, limits assumed); test: ELISA
T3 construct: also called rat MMP9; 組換えラットMMP9

[7] = biological target: T4, マウスMMP9 (mouse, UniProt P41245 20-730, limits assumed); test: binding test (Table 2, not shown)
T4 construct: The immunogen for AB0046 was a pro/catalytic domain fragment of mouse MMP9; also called mouse MMP9

[8] = biological target: T4, マウスMMP9; test: cell-based or functional assay
[9] = biological target: T4, マウスMMP9; test: ELISA

T1 sequence (P14780 20-707 Q279R/R574P limits assumed): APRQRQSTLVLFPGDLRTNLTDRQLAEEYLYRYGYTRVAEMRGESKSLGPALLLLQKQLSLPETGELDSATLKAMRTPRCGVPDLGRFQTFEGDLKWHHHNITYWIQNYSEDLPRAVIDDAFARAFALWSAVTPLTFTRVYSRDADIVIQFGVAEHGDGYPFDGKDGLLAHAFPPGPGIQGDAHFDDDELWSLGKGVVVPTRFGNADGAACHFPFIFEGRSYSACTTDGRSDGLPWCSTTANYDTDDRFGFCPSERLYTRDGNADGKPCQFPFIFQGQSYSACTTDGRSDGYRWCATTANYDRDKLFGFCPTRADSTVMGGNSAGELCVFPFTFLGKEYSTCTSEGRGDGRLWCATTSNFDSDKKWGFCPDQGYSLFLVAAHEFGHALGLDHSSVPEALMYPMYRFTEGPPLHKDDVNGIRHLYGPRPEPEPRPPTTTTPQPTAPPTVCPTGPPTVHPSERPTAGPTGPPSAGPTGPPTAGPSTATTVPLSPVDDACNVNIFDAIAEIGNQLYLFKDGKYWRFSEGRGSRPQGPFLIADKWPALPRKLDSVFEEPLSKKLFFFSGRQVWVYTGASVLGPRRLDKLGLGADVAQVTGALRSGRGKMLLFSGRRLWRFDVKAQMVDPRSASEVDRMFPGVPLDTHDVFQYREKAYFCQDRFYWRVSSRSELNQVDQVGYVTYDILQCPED
T4 sequence (P41245 20-730 limits assumed): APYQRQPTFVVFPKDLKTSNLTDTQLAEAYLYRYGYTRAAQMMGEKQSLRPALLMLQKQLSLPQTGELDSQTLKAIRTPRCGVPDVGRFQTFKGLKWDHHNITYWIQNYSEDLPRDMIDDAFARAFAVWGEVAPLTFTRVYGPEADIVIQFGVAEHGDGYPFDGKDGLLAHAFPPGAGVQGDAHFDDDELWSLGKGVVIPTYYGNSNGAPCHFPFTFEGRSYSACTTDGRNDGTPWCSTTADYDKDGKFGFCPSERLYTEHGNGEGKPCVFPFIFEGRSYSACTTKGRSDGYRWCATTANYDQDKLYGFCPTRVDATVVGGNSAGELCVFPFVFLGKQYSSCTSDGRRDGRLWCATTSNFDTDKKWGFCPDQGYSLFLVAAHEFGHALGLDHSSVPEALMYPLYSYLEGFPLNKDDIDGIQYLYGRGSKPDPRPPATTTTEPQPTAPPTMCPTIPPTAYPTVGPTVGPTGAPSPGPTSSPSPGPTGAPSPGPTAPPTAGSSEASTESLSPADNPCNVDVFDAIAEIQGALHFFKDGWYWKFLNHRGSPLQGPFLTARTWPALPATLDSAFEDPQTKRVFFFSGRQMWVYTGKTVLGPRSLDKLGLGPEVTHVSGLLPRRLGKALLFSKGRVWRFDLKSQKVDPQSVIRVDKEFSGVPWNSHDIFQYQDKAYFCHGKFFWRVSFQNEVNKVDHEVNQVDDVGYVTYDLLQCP
T3 sequence (P50282 20-708 limits assumed): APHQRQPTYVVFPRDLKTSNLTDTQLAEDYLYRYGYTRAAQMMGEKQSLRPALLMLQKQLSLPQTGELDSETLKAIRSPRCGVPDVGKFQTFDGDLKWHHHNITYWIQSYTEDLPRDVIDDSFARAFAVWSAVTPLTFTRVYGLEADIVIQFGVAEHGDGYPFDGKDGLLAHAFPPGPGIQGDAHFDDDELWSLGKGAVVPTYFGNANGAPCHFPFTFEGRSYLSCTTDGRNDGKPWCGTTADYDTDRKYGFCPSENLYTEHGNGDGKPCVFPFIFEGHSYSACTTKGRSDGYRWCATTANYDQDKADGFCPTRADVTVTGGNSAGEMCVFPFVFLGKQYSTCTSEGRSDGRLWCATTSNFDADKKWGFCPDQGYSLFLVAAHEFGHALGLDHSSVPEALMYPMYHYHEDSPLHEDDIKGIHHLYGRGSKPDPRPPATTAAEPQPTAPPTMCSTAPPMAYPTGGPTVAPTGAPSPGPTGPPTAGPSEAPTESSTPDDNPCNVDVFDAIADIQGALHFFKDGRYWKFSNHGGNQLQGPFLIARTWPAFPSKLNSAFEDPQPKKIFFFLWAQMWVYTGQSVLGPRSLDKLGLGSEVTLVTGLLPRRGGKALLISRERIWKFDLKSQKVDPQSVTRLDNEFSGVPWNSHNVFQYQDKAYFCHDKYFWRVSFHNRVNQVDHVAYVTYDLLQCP
T2 sequence (A0A2K5UU71 entry or part of it): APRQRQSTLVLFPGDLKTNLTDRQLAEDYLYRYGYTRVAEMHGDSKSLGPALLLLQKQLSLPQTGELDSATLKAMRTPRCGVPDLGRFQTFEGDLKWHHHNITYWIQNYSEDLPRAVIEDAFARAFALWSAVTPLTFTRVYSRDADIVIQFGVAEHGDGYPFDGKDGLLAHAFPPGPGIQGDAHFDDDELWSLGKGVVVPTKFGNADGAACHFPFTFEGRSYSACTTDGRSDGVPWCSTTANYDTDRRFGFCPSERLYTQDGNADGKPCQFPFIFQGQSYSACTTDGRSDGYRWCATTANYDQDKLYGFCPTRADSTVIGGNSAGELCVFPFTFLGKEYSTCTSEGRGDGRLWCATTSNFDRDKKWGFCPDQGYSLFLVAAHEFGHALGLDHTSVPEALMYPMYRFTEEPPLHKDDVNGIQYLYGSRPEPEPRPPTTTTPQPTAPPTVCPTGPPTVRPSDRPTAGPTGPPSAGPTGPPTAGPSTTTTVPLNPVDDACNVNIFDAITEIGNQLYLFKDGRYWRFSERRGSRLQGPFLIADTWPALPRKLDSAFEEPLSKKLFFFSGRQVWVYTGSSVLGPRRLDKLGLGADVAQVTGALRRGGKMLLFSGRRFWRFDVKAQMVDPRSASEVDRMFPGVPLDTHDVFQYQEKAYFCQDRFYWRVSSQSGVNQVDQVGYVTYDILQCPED

Binder | Kd [1] [nM] | Kd [2] [nM] | IC50, MMP9-mediated cleavage of fluorogenic peptide substrate Mca-PLGL-Dpa-AR-NH2 [3] [nM] | Kd [4] [nM] | Kd [5] | Kd [6] [nM] | binding result [7] | IC50, MMP9-mediated cleavage of fluorogenic peptide substrate Mca-PLGL-Dpa-AR-NH2 [8] [nM] | Kd [9] [nM]
ヒト化変異体抗MMP9抗体AB0045(ヒト化、改変IgG4(S241P)) (antibody, V domains shown, also called AB0045; AB0045抗体) VH: QVQLQESGPGLVKPSETLSLTCTVSGFSLLSYGVHWVRQPPGKGLEWLGVIWTGGTTNYNSALMSRFTISKDDSKNTVYLKMNSLKTEDTAIYYCARYYYGMDYWGQGTLVTVSS VL: DIQMTQSPSSLSASVGDRVTITCKASQDVRNTVAWYQQKPGKAPKLLIYSSSYRNTGVPDRFSGSGSGTDFTLTISSLQAEDVAVYYCQQHYITPYTFGGGTKVEIKR | ~0.001 | 0.0088 | 0.691 | < 0.4 | < 0.4 nM and 0.168 nM | < 0.4 |  |  | 
マウスモノクローナル抗MMP9抗体(AB0041) (antibody, mouse IgG2b, V domains shown, also called AB0041; AB0041抗体) VH: QVQLKESGPGLVAPSQSLSITCTVSGFSLLSYGVHWVRQPPGKGLEWLGVIWTGGTTNYNSALMSRLSISKDDSKSQVFLKMNSLQTDDTAIYYCARYYYGMDYWGQGTSVTVSS VL: DIVMTQSHKFMSTSVGDRVSITCKASQDVRNTVAWYQQKTGQSPKLLIYSSSYRNTGVPDRFTGSGSGTDFTFTISSVQAEDLAVYFCQQHYITPYTFGGGTKLEIK |  | 0.0004 | 0.569 | < 0.4 |  | < 0.4 | no binding |  | 
マウス抗体AB0046 (antibody, V domains shown, Mouse IgG1/kappa anti-mouse MMP9 antibody; also called AB0046; AB0046抗体) VH: QVQLQQPGSVLVRPGASVKLSCTASGYTFTSYWMNWVKQRPGQGLEWIGEIYPISGRTNYNEKFKVKATLTVDTSSSTAYMDLNSLTSEDSAVYYCARSRANWDDYWGQGTTLTVSS VL: DIQMTQTTSSLSASLGDRVTISCSASQGISNYLNWYQQKPDGTFKLLIYYTSILHSGVPSRFSGSGSGTDYSLTISNLEPEDIATYYCQQYGWLPRTFGGGTKLEIKR |  |  |  |  |  |  |  | 0.352 | 0.218
